In US20250243265A1 (published 2025):
Residue numbers refer to the chain shown, from its start. Names may count otherwise. Values belong to the binder of their own block, whether it stands above or below them.

Key:
[1] = molecular target: linear diubiquitin (Boston Biochem) (Homo sapiens (Human), UniProt P0CG48 1-152); assay: western blot, 1 µg/mL IgG
[2] = molecular target: T1, K63-linked diubiquitin (Boston Biochem) (Homo sapiens (Human), UniProt P0CG48 1-76, isopeptide bond between the C-terminus of one ubiquitin and Lys63 of the other); assay: western blot
T1 construct: Two ubiquitin units; also called K63 diUb
Method: Non-specific binding sites on the membranes were blocked by incubation in 5% milk in PBST for 1 hour at 25° C. with shaking. […] The membranes were washed three times in PBST with shaking. The IgGs were detected by incubating the membrane in a 1:10,000 dilution of a goat anti-human Fc fragment-specific IR Dye 800CW-conjugated secondary antibody (Rockland Immunochemicals) in 5% milk in PBST for 30 minutes at 25° C. with shaking. The membranes were then washed three times in PBST followed by one wash in PBS.

B1: 1F11/2H5/3F5 triple mutant IgG (antibody, name in Kabat numbering, V domains shown)
VH: EVQLVESGGGLVQPGGSLRLSCAASGFTFSNTYISWVRQAPGKGLEWVASITPSSGQTDYADSVKGRFTISADTSKNTAYLQMNSLRAEDTAVYYCARTWLLRWVMDYWGQGTLVTVSS
VL: DIQMTQSPSSLSASVGDRVTITCRASQDVSTAVAWYQQKPGKAPKLLIYSAKFLYSGVPSRFSGSGSGTDFTLTISSLQPEDFATYYCQQSYTNPPTFGQGTKVEIK
notes: S52K put into the 2H5 light chain, paired with the 3F5 heavy chain; human kappa IgG1
binding result [1]: binds

B2: 3F5/Y102L T110A IgG (antibody, name in Kabat numbering, V domains shown)
VH: B1 VH with Y108L, T116A
VL: B1 VL with K52S, N94T
notes: Human kappa IgG1
binding result [1]: binds

B3: 1F11/Y102L IgG (antibody, V domains shown)
VH: B1 VH with Q57S, Y108L
VL: B1 VL with N94T
notes: Human kappa IgG1
binding result [1]: binds

B4: 1F11/Y102L T110A IgG (antibody, name in Kabat numbering, V domains shown)
VH: B1 VH with Q57S, Y108L, T116A
VL: B1 VL with N94T
notes: Human kappa IgG1
binding result [1]: binds

B5: 1F11/2C11/3F5 triple mutant IgG (antibody, name in Kabat numbering, V domains shown)
VH: B1 VH
VL: B1 VL with N94Q
notes: S52K put into the 2C11 light chain, paired with the 3F5 heavy chain; human kappa IgG1
binding result [1]: binds

The next lines start with the values.

binding result [1]: binds
B6: 3F5/Y102L IgG (antibody, name in Kabat numbering, V domains shown)
VH: B1 VH with Y108L
VL: B1 VL with K52S, N94T
notes: Human kappa IgG1

binding result [2]: no binding
B7: 1F11 IgG (antibody, V domains shown)
VH: B1 VH with Q57S
VL: B1 VL with N94T
